Measured values from patent publication US8288112B2, “Protein, an antibody and measurement of the protein” (P&M Venge AB, priority 2006, dated 2012).

What was measured:
[1] = Positional specificity (sn-2) assay with radiolabeled phosphatidylcholine; format: biochemical; conditions: 1-palmitoyl-2-[1-14C]palmitoyl-PC, 20 h at 37° C.
Method: Positional specificity of the purified enzyme was determined using 1-palmitoyl-2-hydroxyl-phosphatidylcholine (1-palmitoyl-2-hydroxyl-PC) and 1-palmitoyl-2-[1-^14C]palmitoyl-phosphatidylcholine (1-palmitoyl-2-[1-^14C]palmitoyl-PC) as substrates. The hydrolyzing activity of the enzyme at the position of sn-1 acyl ester bonds of glycerophospholipids was determined as described above using 1-palmitoyl-2-hydroxyl-PC as substrate. […] Radiolabeled fatty acids were quantified by scintillation counting.
Experiment D: Detection of phopholipase A2 activity. Radioactive phospholipid, 1-palmitoyl-2-[1-^14C]palmitoyl-PC was incubated without (Control) or with 1 μg of the purified protein (stored at 4° C. 16 w) for 20 h at 37° C. and radioactivity was counted as described in the materials and methods section.

[2] = Enzyme assay: free fatty acid release from phospholipid substrates (NEFA-C kit); format: biochemical; conditions: for activity increase by pre-incubation with released materials from PMA-induced neutrophils: partly activated protein 0.5 μg stored for 19 weeks
Method: Enzyme assay. The reaction mixture (40 μl final volume) contained 10 mM substrates, 100 mM phosphate buffer containing 3 mM of sodium azide (NaN3) and 0.5% Triton X-100, pH 7.4, and 0.5 μg of enzyme or as indicated. Since the formation of the product (fatty acid) was linear with time for at least 24 h under the standard conditions, the reaction mixture was incubated for 18-20 h and the reaction was stopped by cooling on ice. Free fatty acid (FFA) was determined by means of the NEFA-C kit (WAKO chemicals, Neuss, Germany) according to the instructions of the manufacturer.
Experiment A: Didecanoyl-PC was incubated with the purified protein at different time of storage and free fatty acid release was measured. Enzymatic reactions were carried out with 0.5 μg of the purified protein for 20 h at 37° C.
Experiment B: Free fatty acid release from phospholipids, didecanoyl-PC (Dideca-PC), dipalmitoyl-PC (Dipalmi-PC), phosphatidylinositol (PI), phosphatidylethanolamine (PE) and lysophosphatidylcholine (Lyso-PC) was measured. Enzymatic reactions were carried out with 0.5 μg of the purified protein (stored at 4° C. for 15 w) for 18-20 h at 37° C.
Experiment C: The purified protein (stored at 4° C. for 16 w) was preincubated at room temperature or 37° C. for 15 min with released materials (0.5 μg) induced from neutrophils by PMA before incubation with Didecanoyl-PC. Enzymatic reactions were carried out with 0.5 μg of the protein for 20 h at 37° C. and free fatty acid release was measured.
Analyses of the pH optimum, Km and Vmax. The purified protein (0.5 μg) was added to tubes containing Didecanoyl-PC at varying pH (4.0-9.0). The Km and Vmax were calculated from Hanes plots of s/vi on Didecanoyl-PC concentration (s).

B1: HPLB-II: Novel phospholipase B from human neutrophil granules; about 130 kDa oligomer of 25 and 45 kDa fragments of hypothetical protein FLJ22662 (protein)
chain 1: MPAEKTVQVKNVMDKNGDAYGFYNNSVKTTGWGILEIRAGYGSQTLSNEIIMFVAGFLEGYLTAPHMNDHYTNLYPQLITKPSIMDKVQDFMEKQDKWTRKNIKEYKTDSFWRHTGYVMAQIDGLYVGAK
chain 2: VLPGFENILFAHSSWYTYAAMLRIYKHWDFNIIDKDTSSSRLSFSSYPGFLESLDDFYILSSGLILLQTTNSVFNKTLLKQVIPETLLSWQRVRVANMMADSGKRWADIFSKYNSGTYNNQYMVLDLKKVKLNHSLDKGTLYIVEQIPTYVEYSEQTDVLRKGYWPSYNVPFHEKIYNWSGYPLLVQKLGLDYSYDLAPRAKIFRRDQGKVTDTASMKYIMRYNNYKKDPYSRGDPCNTICCREDLNSPNPSPGGCYDTKVADIYLASQYTSYAISGPTVQGGLPVFRWDRFNKTLHQGMAEVYNFDFITMKPILK
- removal of fatty acid from the sn-2 position [1]: removed fatty acid from the sn-2 position
- pH optimum ([2]; didecanoyl-PC as substrate, incubated at 37° C.): 7.4
- Vmax ([2]; didecanoyl-PC substrate, Hanes plots, protein stored for 15 weeks): 21.4 nM/min/mg
- deacylation activity ([2]; freshly purified protein, didecanoyl-PC, dipalmitoyl-PC, PI, PE, Lyso-PC substrates): No activity was detected
- activity increase by pre-incubation with released materials from PMA-induced neutrophils ([2]; pre-incubation 15 min at 37° C.): ~30%
- activity increase by pre-incubation with released materials from PMA-induced neutrophils ([2]; pre-incubation 15 min at room temperature): about 10%
- deacylation activity on didecanoyl-PC ([2]; purified protein stored at 4° C. for some period of time): removed fatty acid from didecanoyl-PC
- deacylation activity on Lyso-PC ([2]; stored purified protein): showed deacylation activity
- deacylation activity on PE ([2]; stored purified protein): showed deacylation activity
- deacylation activity on PI ([2]; stored purified protein): showed deacylation activity
